# Laboratory results taken from patent publication US20250215104A1 (WALDEN BIOSCIENCES, published 2025).
# Where a chain is given by its changes, count along the chain named.
# B1: suPAR_DB04_E07 (scFv, V domains shown)
# VH: QVQLVQSGAEVKKPGASVKVSCKASGDTFTSYYIHWVRQAPGQGLEWMGWIDHENGNTIYDQKFQGRVTMTRDTSTSTVYMELSSLRSEDTAVYYCARGYDVDWFVYWGQGTLVTVSS
# VL: DIQMTQSPSSLSASVGDRVTITCSARSSVSYMYWYQQKPGKAPKLLIYRTSNLASGVPSRFSGSGSGTDFTLTISSLQPEDFATYYCQQYHSYPPTFGGGTKVEIK
# notes: scFv clone from phage display
# B2: suPAR_DB04_F03 (scFv, V domains shown)
# VH: QVQLVQSGAEVKKPGASVKVSCKASGYTIKDYYIHWVRQAPGQGLEWMGWIDPRSGDTNYGKNFQGRVTMTRDTSTSTVYMELSSLRSEDTAVYYCARGYDVDWFVYWGQGTLVTVSS
# VL: B1 VL
# notes: scFv clone from phage display
# B3: suPAR_DB04_E10 (scFv, V domains shown)
# VH: B1 VH with D27Y, T30S, I34F, H53P, E54N, N55T, N57D, D61A
# VL: B1 VL
# notes: scFv clone from phage display
# B4: suPAR_DB04_E08 (scFv, V domains shown)
# VH: B1 VH with D27Y, S31G, I34M, I59S, D61A
# VL: B1 VL
# notes: scFv clone from phage display
# B5: suPAR_DB04_F04 (scFv, V domains shown)
# VH: B1 VH with D27Y, I34M, I59S
# VL: B1 VL
# notes: scFv clone from phage display
# B6: suPAR_DB04_E09 (scFv, V domains shown)
# VH: B1 VH with S31D, N57S, I59S
# VL: B1 VL with S24R, S27Q
# notes: scFv clone from phage display
# B7: suPAR_DB04_E12 (scFv, V domains shown)
# VH: B1 VH with D27Y, S31T, I34M, H53P, N57S
# VL: B1 VL with R26S, S27Q
# notes: scFv clone from phage display
# B8: suPAR_DB04_E11 (scFv, V domains shown)
# VH: B1 VH with D27Y, S31N, I34V
# VL: B1 VL with S27Q
# notes: scFv clone from phage display
# B9: suPAR_DB04_F05 (scFv, V domains shown)
# VH: B1 VH with D27Y, T30S, S31D, I34V, N55G, N57S, I59S, D61A
# VL: B1 VL with S27Q, V29I
# notes: scFv clone from phage display
# B10: suPAR_DB04_F06 (scFv, V domains shown)
# VH: B1 VH with D27Y, S31G, I34M, I59S, D61A
# VL: B1 VL with S27Q, V29I
# notes: scFv clone from phage display
# B11: suPAR_DB04_F10 (scFv, V domains shown)
# VH: B1 VH with D27Y, S31D, I34M, E54S, N55G, D61A
# VL: B1 VL
# notes: scFv clone from phage display
# B12: suPAR_DB04_F09 (scFv, V domains shown)
# VH: B1 VH with D27Y, S31N, I34F, I59S
# VL: B1 VL
# notes: scFv clone from phage display
# B13: suPAR_DB04_F08 (scFv, V domains shown)
# VH: B1 VH with D27G, I34M, E54S, N57S, I59S, D61A, K63E
# VL: B1 VL
# notes: scFv clone from phage display
# B14: suPAR_DB04_F01 (scFv, V domains shown)
# VH: B1 VH with D27Y, I34M, N55G, D61A, Y100D
# VL: B1 VL with R26S, S27Q
# notes: scFv clone from phage display
# B15: suPAR_DB04_F07 (scFv, V domains shown)
# VH: B1 VH with D27Y, S31G, I34V
# VL: B1 VL
# notes: scFv clone from phage display
# Target: T1, human soluble urokinase plasminogen activator receptor (hsuPAR) (human, UniProt Q03405 23-303, limits assumed)
# T1 construct: also called human suPAR; rhuPAR-His
# T1 sequence (Q03405 23-303 limits assumed): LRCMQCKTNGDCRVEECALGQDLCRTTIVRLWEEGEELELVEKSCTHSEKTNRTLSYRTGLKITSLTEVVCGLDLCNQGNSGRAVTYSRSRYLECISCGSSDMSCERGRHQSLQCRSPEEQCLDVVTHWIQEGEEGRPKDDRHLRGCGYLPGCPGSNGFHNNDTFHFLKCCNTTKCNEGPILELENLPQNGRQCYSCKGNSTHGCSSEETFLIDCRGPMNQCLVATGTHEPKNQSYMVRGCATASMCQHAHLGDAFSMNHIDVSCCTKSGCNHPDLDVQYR
# Assay: off-rate screen of scFv clones (kdis), Octet BLI
row,Binder,koff [s⁻¹]
1,B1,0.00311
2,B2,0.00375
3,B3,0.00116
4,B4,0.00268
5,B5,0.00394
6,B6,0.00598
7,B7,0.00336
8,B8,0.00502
9,B9,0.00405
10,B10,0.00279
11,B11,0.00412
12,B12,0.00462
13,B13,0.00261
14,B14,0.00267
15,B15,0.00269

# Target: T2, cynomolgus soluble urokinase plasminogen activator receptor (cynomolgus suPAR) (cynomolgus, UniProt Q9GK78 23-303, limits assumed)
# T2 construct: also called cynomolgus uPAR; cynoPLAUR-His
# T2 sequence (Q9GK78 23-303 limits assumed): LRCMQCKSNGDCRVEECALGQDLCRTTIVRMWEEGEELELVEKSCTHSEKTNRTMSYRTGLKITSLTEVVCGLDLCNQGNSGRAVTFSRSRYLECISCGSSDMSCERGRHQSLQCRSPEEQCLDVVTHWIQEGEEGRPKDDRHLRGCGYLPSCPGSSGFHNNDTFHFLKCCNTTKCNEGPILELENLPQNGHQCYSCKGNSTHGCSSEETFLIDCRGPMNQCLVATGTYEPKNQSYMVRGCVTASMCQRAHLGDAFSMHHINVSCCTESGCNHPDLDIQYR
# Assay: off-rate screen of scFv clones (kdis), Octet BLI
row,Binder,koff [s⁻¹]
1,B1,0.00023
2,B2,0.000863
3,B3,0.000142
4,B4,0.000149
5,B5,0.000174
6,B6,0.000446
7,B7,8.15e-05
8,B8,0.000158
9,B9,0.000278
10,B10,0.000195
11,B11,0.000274
12,B12,0.000122
13,B13,4.31e-05
14,B14,4.88e-07
15,B15,3.33e-05
